Key:
[1] = biological target: B.RHPA Env N160K (HIV-1); assay: cell-based or functional assay
[2] = biological target: B.RHPA Env N276A (HIV-1); assay: cell-based or functional assay
[3] = biological target: B.RHPA Env T278A (HIV-1); assay: cell-based or functional assay
[4] = biological target: B.RHPA Env T278A R456W (HIV-1); assay: cell-based or functional assay
[5] = biological target: HIV-1 Env (strain and construct not stated); assay: SPR; antibody-Env mixture flowed over immobilized HJ16 (competitor: immobilized HJ16)
[6] = biological target: B.6240 gp120 (HIV-1); assay: not stated (binding of B.6420 gp120 to mAbs)

Substance	fold increase in IC50 (neutralization, mutant vs wild type) [1] [fold]	fold increase in IC50 (neutralization, mutant vs wild type) [2] [fold]	fold increase in IC50 (neutralization, mutant vs wild type) [3] [fold]	fold increase in IC50 (neutralization, mutant vs wild type) [4] [fold]	percent blocked [5] [%]	quantity not named (value printed after the antibody's name) [6] [nM]
HJ16 (antibody)	0.5	> 10	> 10	> 1000	96	–
PG9 (antibody)	–	–	–	–	–	32.1
